Reference: article PMC10018365, “Cryo-EM structure of the fully assembled Elongator complex” (Nucleic Acids Research, 2023)

Key:
Settings in all cases: both partners purified
[1] = target: T1, Homo sapiens Elp123 subcomplex, wild type (Homo sapiens, UniProt O95163 1-1332; Q6IA86 1-826; Q9H9T3 1-547); assay: SEC; Elp123 incubated with the respective Elp456 for 30 min at 25°C at 1:2 weight ratio, then Superose 6 Increase 10/300 GL in 20 mM HEPES pH 7.5, 100 mM NaCl, 5 mM DTT
T1 construct: Elp1, human, ORF; Elp2, human, ORF; Elp3, human, ORF; also called human Elp123; source: Sf9-3 insect cells (baculovirus, biGBac), purified (StrepTrap, heparin, Superose 6); not shown: Twin-Strep-tag, C-terminal, kept; copies: 2 + 2 + 2
T1 sequence (O95163 whole entry, chain 1 of 3): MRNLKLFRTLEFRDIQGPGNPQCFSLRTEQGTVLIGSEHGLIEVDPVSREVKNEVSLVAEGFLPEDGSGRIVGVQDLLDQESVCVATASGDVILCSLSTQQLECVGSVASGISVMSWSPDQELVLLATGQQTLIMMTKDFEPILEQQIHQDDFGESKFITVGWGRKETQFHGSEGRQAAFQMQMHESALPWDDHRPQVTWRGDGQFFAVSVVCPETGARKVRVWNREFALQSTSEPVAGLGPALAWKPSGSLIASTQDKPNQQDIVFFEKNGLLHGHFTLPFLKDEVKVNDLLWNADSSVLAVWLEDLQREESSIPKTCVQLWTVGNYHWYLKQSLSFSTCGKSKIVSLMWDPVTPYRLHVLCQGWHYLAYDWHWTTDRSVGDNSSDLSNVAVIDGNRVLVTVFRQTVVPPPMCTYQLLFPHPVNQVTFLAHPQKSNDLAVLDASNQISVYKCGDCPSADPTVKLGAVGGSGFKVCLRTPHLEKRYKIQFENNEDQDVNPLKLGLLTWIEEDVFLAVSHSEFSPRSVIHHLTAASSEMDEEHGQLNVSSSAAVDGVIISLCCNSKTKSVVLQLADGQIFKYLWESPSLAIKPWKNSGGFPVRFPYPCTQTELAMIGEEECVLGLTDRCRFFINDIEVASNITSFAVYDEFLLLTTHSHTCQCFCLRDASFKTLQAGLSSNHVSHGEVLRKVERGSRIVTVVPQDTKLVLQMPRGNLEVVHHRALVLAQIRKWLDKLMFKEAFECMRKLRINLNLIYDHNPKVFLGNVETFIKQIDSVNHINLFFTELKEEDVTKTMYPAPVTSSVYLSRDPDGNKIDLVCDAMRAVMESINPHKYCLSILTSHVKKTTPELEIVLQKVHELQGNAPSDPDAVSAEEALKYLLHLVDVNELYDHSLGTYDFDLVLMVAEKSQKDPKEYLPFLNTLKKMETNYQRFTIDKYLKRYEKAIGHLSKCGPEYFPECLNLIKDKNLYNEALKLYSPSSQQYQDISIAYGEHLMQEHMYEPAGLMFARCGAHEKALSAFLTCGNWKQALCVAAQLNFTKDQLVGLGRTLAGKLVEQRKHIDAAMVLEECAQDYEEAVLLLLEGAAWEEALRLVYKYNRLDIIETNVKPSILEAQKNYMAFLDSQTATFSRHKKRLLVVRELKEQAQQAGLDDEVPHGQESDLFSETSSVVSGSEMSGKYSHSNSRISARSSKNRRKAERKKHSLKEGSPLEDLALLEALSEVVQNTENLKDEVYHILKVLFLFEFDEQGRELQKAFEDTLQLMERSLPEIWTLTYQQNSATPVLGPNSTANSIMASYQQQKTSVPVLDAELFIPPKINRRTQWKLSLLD
T1 sequence (Q6IA86 whole entry, chain 2 of 3): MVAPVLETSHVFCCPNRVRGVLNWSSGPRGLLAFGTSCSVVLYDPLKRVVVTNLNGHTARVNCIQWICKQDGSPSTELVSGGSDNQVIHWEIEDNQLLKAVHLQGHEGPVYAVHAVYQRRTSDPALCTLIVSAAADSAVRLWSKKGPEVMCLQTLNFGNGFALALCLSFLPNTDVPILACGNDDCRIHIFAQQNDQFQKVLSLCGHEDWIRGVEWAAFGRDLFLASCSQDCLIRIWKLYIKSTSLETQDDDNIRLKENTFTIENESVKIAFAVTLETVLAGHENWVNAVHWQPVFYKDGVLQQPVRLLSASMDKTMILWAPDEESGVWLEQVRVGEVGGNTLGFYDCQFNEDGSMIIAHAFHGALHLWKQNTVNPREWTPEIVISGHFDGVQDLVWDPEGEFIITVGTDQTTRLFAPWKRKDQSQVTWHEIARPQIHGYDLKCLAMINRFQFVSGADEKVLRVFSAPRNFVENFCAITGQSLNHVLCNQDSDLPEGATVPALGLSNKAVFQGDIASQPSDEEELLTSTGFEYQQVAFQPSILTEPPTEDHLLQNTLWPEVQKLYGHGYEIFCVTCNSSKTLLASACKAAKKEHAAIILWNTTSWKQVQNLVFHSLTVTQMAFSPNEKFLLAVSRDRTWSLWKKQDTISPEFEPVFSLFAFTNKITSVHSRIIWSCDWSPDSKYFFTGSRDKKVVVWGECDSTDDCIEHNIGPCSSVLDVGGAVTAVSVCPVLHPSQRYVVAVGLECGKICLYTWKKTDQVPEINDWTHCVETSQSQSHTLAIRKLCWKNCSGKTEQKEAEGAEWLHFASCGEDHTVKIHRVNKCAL
T1 sequence (Q9H9T3 whole entry, chain 3 of 3): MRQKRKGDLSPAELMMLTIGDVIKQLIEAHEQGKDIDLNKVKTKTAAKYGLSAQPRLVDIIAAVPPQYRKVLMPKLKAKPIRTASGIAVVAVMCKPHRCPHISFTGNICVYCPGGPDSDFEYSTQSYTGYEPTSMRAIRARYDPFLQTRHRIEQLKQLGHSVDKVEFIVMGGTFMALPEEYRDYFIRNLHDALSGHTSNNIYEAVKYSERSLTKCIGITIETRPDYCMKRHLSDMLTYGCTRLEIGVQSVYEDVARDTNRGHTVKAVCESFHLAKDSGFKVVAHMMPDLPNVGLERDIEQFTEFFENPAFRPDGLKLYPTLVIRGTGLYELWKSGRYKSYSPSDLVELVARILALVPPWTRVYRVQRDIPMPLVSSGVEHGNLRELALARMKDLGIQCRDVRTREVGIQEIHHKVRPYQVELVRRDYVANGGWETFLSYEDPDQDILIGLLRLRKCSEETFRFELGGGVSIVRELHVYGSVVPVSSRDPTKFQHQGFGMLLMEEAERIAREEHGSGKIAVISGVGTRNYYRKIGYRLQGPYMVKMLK

[2] = target: T2, Homo sapiens Elp123 subcomplex with Elp1 Δ1132–1224 (Homo sapiens, UniProt O95163 1-1332; Q6IA86 1-826; Q9H9T3 1-547, Δ1132–1224); assay: pull-down; 10 μg bait, 20 μg prey; Elp123 on StrepTactin Sepharose by Twin-Strep-tagged Elp3, or Elp456 on anti-DYKDDDDK resin by FLAG-tagged Elp6; 30-60 min at 4°C; washes in 20 mM HEPES pH 7.5, 100 mM NaCl, 1 mM DTT, 0.05% Tween 20; SDS-PAGE with Coomassie or silver stain; also with ATP and bulk tRNA
T2 construct: Elp2, human, ORF; Elp3, human, ORF; source: Sf9-3 insect cells (baculovirus, biGBac), purified (StrepTrap, heparin, Superose 6); not shown: Twin-Strep-tag, C-terminal, kept; copies: 2 + 2 + 2
T2 sequence (O95163 other isoform, or with tags, fused parts or gaps Δ1132–1224 | Δ1132–1224 | mutant, chain 1 of 3): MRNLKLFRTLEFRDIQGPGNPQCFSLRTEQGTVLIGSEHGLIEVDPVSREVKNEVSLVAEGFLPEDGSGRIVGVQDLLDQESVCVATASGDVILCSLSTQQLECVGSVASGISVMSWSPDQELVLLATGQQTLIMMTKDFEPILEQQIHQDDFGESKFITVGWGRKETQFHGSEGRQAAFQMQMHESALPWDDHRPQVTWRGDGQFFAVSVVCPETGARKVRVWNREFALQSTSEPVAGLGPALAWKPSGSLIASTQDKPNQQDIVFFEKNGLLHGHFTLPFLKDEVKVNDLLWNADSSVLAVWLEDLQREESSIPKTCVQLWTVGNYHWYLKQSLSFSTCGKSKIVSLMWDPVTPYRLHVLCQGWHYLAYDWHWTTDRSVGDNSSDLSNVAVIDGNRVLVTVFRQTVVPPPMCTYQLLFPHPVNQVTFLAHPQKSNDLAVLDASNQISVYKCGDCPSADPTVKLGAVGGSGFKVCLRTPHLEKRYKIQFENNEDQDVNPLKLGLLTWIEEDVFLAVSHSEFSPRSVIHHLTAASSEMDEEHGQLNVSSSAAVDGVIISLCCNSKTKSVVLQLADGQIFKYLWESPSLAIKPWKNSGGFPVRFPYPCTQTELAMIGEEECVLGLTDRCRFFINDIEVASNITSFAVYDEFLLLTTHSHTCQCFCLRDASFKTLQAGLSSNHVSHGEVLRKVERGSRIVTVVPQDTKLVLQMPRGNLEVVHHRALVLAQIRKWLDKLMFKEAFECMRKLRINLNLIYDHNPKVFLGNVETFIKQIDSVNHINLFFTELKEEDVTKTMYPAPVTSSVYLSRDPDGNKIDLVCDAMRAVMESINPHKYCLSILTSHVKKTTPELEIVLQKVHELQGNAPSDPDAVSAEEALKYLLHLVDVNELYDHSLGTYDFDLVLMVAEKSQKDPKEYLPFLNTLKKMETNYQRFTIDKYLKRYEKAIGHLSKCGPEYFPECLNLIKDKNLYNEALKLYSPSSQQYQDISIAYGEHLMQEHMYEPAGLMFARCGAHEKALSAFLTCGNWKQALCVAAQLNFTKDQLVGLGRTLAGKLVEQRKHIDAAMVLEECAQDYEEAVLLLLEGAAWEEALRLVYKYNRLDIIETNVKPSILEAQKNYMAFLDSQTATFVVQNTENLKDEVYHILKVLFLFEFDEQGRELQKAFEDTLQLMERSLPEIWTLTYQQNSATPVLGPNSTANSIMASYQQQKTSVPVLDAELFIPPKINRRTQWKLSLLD
T2 sequence (Q6IA86 whole entry, stated change not applied, chain 2 of 3): as the sequence (Q6IA86 whole entry, chain 2 of 3) above
T2 sequence (Q9H9T3 whole entry, stated change not applied, chain 3 of 3): as the sequence (Q9H9T3 whole entry, chain 3 of 3) above

[3] = target: T3, Mus musculus Elp123 subcomplex (Mus musculus, UniProt Q7TT37 1-1333; Q91WG4 1-831; Q9CZX0 1-547); assay: cryo-EM structure; MmElongator reconstituted from purified MmElp123 and MmElp456 and re-purified by gel filtration, 5.9 Å
T3 construct: Elp1, mouse, ORF; Elp2, mouse, ORF; Elp3, mouse, ORF; Gel filtration at about 610 kDa; also called MmElp123; mouse Elp123; source: Super Sf9-1 insect cells (baculovirus, biGBac), purified (StrepTrap, heparin, Superose 6); not shown: Twin-Strep-tag, C-terminal, kept; copies: 2 + 2 + 2

[4] = target: T4, Saccharomyces cerevisiae Elp2 (Saccharomyces cerevisiae, UniProt P42935 1-788); assay: cryo-EM structure; ScElp123 with yeast tRNA Ala UGC (3-5 molar excess, 15 min on ice), 3.96 Å
T4 construct: Elp2, S. cerevisiae, full-length ORF; also called ScElp2; source: S. cerevisiae DS1-2b, overexpressed, purified within ScElongator
T4 sequence (looked up): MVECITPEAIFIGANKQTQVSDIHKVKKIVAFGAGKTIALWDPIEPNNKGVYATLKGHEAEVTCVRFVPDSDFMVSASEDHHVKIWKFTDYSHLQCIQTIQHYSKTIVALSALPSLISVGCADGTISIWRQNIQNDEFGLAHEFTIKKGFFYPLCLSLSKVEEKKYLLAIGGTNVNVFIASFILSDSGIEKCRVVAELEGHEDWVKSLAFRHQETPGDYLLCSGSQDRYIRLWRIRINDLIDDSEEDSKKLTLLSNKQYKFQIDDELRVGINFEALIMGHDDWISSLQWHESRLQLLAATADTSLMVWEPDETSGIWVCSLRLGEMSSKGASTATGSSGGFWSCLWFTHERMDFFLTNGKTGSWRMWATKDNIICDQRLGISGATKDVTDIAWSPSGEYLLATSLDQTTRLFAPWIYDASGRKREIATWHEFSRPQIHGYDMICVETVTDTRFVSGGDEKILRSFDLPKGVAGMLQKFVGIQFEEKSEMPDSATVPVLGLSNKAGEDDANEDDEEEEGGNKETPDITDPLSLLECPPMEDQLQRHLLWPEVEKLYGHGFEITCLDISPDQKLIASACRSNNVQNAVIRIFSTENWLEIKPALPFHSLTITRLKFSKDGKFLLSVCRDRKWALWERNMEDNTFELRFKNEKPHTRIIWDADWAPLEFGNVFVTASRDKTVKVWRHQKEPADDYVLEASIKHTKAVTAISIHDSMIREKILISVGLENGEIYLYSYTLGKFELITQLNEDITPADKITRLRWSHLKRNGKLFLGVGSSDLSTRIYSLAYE

[5] = target: T5, Saccharomyces cerevisiae Elp1 (Saccharomyces cerevisiae, UniProt Q06706 1-1349); assay: as above
T5 construct: Elp1, S. cerevisiae, full-length ORF; also called ScElp1; source: S. cerevisiae DS1-2b, overexpressed, purified within ScElongator
T5 sequence (looked up): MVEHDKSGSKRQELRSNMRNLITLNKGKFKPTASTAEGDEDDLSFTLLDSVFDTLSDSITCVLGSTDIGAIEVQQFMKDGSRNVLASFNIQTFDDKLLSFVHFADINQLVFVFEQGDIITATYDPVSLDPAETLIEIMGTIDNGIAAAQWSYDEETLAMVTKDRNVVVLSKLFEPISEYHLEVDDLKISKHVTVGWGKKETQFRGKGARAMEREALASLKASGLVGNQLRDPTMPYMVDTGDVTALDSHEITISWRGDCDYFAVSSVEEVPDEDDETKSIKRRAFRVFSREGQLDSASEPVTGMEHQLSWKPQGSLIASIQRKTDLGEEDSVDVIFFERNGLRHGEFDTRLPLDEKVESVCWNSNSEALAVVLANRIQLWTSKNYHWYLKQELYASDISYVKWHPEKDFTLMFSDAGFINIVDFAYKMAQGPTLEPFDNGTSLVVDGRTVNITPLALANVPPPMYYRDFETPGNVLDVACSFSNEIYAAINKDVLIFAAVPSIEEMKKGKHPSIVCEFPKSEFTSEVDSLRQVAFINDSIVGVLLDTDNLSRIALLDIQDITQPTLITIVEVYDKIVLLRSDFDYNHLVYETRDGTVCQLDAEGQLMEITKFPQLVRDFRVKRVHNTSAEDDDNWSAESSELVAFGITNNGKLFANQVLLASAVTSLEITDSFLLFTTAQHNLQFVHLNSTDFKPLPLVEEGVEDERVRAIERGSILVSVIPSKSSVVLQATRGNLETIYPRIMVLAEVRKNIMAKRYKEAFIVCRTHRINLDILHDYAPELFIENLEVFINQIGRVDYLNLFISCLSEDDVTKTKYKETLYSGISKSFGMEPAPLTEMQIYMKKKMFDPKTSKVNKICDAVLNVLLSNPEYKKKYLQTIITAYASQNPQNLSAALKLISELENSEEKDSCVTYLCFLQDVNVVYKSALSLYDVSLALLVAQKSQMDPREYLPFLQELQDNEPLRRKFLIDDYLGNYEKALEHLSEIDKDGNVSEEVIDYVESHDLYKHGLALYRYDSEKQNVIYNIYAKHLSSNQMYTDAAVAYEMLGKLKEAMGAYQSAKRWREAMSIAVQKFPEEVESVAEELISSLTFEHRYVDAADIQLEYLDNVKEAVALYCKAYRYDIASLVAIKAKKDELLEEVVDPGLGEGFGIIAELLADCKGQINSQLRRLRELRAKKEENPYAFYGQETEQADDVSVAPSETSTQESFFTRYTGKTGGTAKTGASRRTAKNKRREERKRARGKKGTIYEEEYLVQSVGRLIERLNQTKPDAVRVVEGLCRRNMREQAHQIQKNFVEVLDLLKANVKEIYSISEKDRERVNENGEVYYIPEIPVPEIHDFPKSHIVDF

B1: Homo sapiens Elp456 subcomplex, wild type (complex)
chain 1: MAAVATCGSVAASTGSAVATASKSNVTSFQRRGPRASVTNDSGPRLVSIAGTRPSVRNGQLLVSTGLPALDQLLGGGLAVGTVLLIEEDKYNIYSPLLFKYFLAEGIVNGHTLLVASAKEDPANILQELPAPLLDDKCKKEFDEDVYNHKTPESNIKMKIAWRYQLLPKMEIGPVSSSRFGHYYDASKRMPQELIEASNWHGFFLPEKISSTLKVEPCSLTPGYTKLLQFIQNIIYEEGFDGSNPQKKQRNILRIGIQNLGSPLWGDDICCAENGGNSHSLTKFLYVLRGLLRTSLSACIITMPTHLIQNKAIIARVTTLSDVVVGLESFIGSERETNPLYKDYHGLIHIRQIPRLNNLICDESDVKDLAFKLKRKLFTIERLHLPPDLSDTVSRSSKMDLAESAKRLGPGCGMMAGGKKHLDF
chain 2: MLDSLLALGGLVLLRDSVEWEGRSLLKALVKKSALCGEQVHILGCEVSEEEFREGFDSDINNRLVYHDFFRDPLNWSKTEEAFPGGPLGALRAMCKRTDPVPVTIALDSLSWLLLRLPCTTLCQVLHAVSHQDSCPGDSSSVGKVSVLGLLHEELHGPGPVGALSSLAQTEVTLGGTMGQASAHILCRRPRQRPTDQTQWFSILPDFSLDLQEGPSVESQPYSDPHIPPVDPTTHLTFNLHLSKKEREARDSLILPFQFSSEKQQALLRPRPGQATSHIFYEPDAYDDLDQEDPDDDLDI
chain 3: MFVELNNLLNTTPDRAEQGKLTLLCDAKTDGSFLVHHFLSFYLKANCKVCFVALIQSFSHYSIVGQKLGVSLTMARERGQLVFLEGLKSAVDVVFQAQKEPHPLQFLREANAGNLKPLFEFVREALKPVDSGEARWTYPVLLVDDLSVLLSLGMGAVAVLDFIHYCRATVCWELKGNMVVLVHDSGDAEDEENDILLNGLSHQSHLILRAEGLATGFCRDVHGQLRILWRRPSQPAVHRDQSFTYQYKIQDKSVSFFAKGMSPAVL
notes: Elp4, human, ORF; Elp5, human, ORF; Elp6, human, ORF; also called human Elp456; source: Hi-5 insect cells (baculovirus, biGBac), purified (IgG Sepharose with TEV elution, Superose 6); not shown: FLAG, C-terminal, kept; Protein A, C-terminal, cleaved; copies: 2 + 2 + 2
B1: binds [1]; binds [2].

B2: Mus musculus Elp456 subcomplex (complex)
chain 1: MAAADTCGAGTLSSRSVASEAGQGGTSSFQRKGKASGGPGGGPRLLSIAGTRPSVRNGQLLVSTGLPALDQLLGGGLAVGTLLLIEEDKYNIYSPLLFKYFMAEGIINGHTLLVASAKENPAKILQELPAPLLDDNSKKELEDVHSAKTPEPNVNMKIAWRYQLQPKMEVGPVSSSRFGHYYDLSKRIPWELLQSSKWHGFFLPEHISPDLKGESCFLSCGYMRLLEFIQKSVYAEGFDGANPQKKQKNILRIGIQNLGSPLWGDDICCKENCDNNHRLTKFLYILRGLLRSSLSACIITMPAHLVQNKSITTRVRNLSDTVVGLESFIGSERETNPLYKDYHGLIHIRKIPRLNNLTCDESDVKDLAFKLKRKLFTIERLHLPPDLSDTVGRSSKQDLAASTARLGAGCSSMAEGKKHLDF
chain 2: MLDSLLAIGGLVLLRDSVEWEGRSLLKALIKKSALRGEQVHVLGCEVSEEEFREGFDSDVNSRLVYHDLFRDPLNWSKPGEAVPEGPLKALRSMCKRTDHGSVTIALDSLSWLLCHIPCVTLCQALHALSQQNGDPGDNSLVEQVRVLGLLHEELHGPGSMGALNTLAHTEVTLSGKVDQTSASILCRRPQQRATYQTWWFSVLPDFSLTLHEGLPLRSELHPDHHTTQVDPTAHLTFNLHLSKKEREARDSLTLPFQFSSEKQKALLHPVPSRTTGHIFYEPDAFDDVDPEDPDDDLDI
chain 3: MFPELNNLLSTTPDKTEQGTLTLLCDAKTDGSFLVHHFLSFYLKANCKVCFVALVQSFSHYNIVGQKLGVSLTAARDRGQLVFLEGLKSSVEVLFHSQDEPHPLQFLREAGTGNLQSLYTFIQDTLKPADSEESPWKYPVLLVDNLSVLLSLGVGAVAVLDFMQYCRATVCCELKGNVVALVHDTEGATDEGNDTLLNGLSHQSHLILRAEGLATGFCKDVHGQLSILWRRPSRSTAQRAQSLTYQYKIQDKNVSFFAKGMSPAVL
notes: Elp4, mouse, ORF; Elp5, mouse, ORF; Elp6, mouse, ORF; Gel filtration at about 220 kDa; also called MmElp456; mouse Elp456; source: Hi-5 insect cells (baculovirus, biGBac), purified (IgG Sepharose with TEV elution, Superose 6); not shown: FLAG, C-terminal, kept; Protein A, C-terminal, cleaved; copies: 2 + 2 + 2
B2 was tested, and the “stoichiometry N” value [3] was 1.

B3: Saccharomyces cerevisiae Elp3 (enzyme, UniProt Q02908 1-557, looked up)
chain: MARHGKGPKTNKKKLAPEKERFIQCCADITLELTDSLTSGTTREINLNGLITKYSKKYKLKQQPRLTDIINSIPDQYKKYLLPKLKAKPVRTASGIAVVAVMCKPHRCPHIAYTGNICVYCPGGPDSDFEYSTQSYTGYEPTSMRAIRARYDPYEQARGRVEQLKQLGHSIDKVEYVLMGGTFMSLPKEYREDFIVKLHNALSGFNGNDIDEAILYSQQSLTKCVGITIETRPDYCTQTHLDDMLKYGCTRLEIGVQSLYEDVARDTNRGHTVRSVCETFAVSKDAGYKVVSHMMPDLPNVGMERDIEQFKEYFENPDFRTDGLKIYPTLVIRGTGLYELWKTGRYKSYSANALVDLVARILALVPPWTRIYRVQRDIPMPLVTSGVDNGNLRELALARMKDLGTTCRDVRTREVGIQEVHHKVQPDQVELIRRDYYANGGWETFLSYEDPKKDILIGLLRLRKASKKYTYRKEFTSQRTSIVRELHVYGSVVPLHSRDPRKFQHQGFGTLLMEEAERIAKEEHGSEKISVISGVGVRNYYGKLGYELDGPYMSKRI
notes: Elp3, S. cerevisiae, full-length ORF; also called ScElp3; source: S. cerevisiae DS1-2b, overexpressed, purified within ScElongator; not shown: Twin-Strep-tag, C-terminal, kept
B3: binds [4]; binds [5].
